Measured values published in patent US20210388087A1 (Chugai, published 2021).
Residue numbers refer to the chain shown, from its start. Numbers in names are those of the source.

B1: H183/L072 VH N31L (antibody, name in Kabat numbering, V domains shown)
VH: QVQLVESGGGLVQPGRSLRLSCAASGFTFSLAWMHWVRQAPGKGLEWVAQIKDKGNAYAAYYAPSVKGRFTISRDDSKNSIYLQMNSLKTEDTAVYYCHYVHYASASTVLPAFGVDAWGQGTTVTVSS
VL: DIVMTQSPLSLPVTPGEPASISCQASQELVHMNRNTYLHWYQQKPGQAPRLLIYKVSNRFPGVPDRFSGSGSGTDFTLKISRVEAEDVGVYYCAQGTSVPFTFGQGTKLEIK
B2: H183/L072 VH Q50E (antibody, name in Kabat numbering, V domains shown)
VH: B1 VH with L31N, Q50E
VL: B1 VL
B3: H183/L072 VH S30T (antibody, name in Kabat numbering, V domains shown)
VH: B1 VH with S30T, L31N
VL: B1 VL
B4: H183/L072 VH N31P (antibody, name in Kabat numbering, V domains shown)
VH: B1 VH with L31P
VL: B1 VL
B5: H183/L072 VH N31Y (antibody, name in Kabat numbering, V domains shown)
VH: B1 VH with L31Y
VL: B1 VL
B6: H183/L072 VH Q50H (antibody, name in Kabat numbering, V domains shown)
VH: B1 VH with L31N, Q50H
VL: B1 VL
B7: H183/L072 VH P61M (antibody, name in Kabat numbering, V domains shown)
VH: B1 VH with L31N, P64M
VL: B1 VL
B8: H183/L072 VH S30V (antibody, name in Kabat numbering, V domains shown)
VH: B1 VH with S30V, L31N
VL: B1 VL
B9: H183/L072 VH N31V (antibody, name in Kabat numbering, V domains shown)
VH: B1 VH with L31V
VL: B1 VL
B10: H183/L072 VH P100eA (antibody, name in Kabat numbering, V domains shown)
VH: B1 VH with L31N, P111A
VL: B1 VL
B11: H183/L072 VH P61L (antibody, name in Kabat numbering, V domains shown)
VH: B1 VH with L31N, P64L
VL: B1 VL
B12: H183/L072 VH Q50S (antibody, name in Kabat numbering, V domains shown)
VH: B1 VH with L31N, Q50S
VL: B1 VL
B13: H183/L072 VH P61A (antibody, name in Kabat numbering, V domains shown)
VH: B1 VH with L31N, P64A
VL: B1 VL
B14: H183/L072 VH S30N (antibody, name in Kabat numbering, V domains shown)
VH: B1 VH with S30N, L31N
VL: B1 VL
B15: H183/L072 VH S30Q (antibody, name in Kabat numbering, V domains shown)
VH: B1 VH with S30Q, L31N
VL: B1 VL
B16: H183/L072 VH S30E (antibody, name in Kabat numbering, V domains shown)
VH: B1 VH with S30E, L31N
VL: B1 VL
B17: H183/L072 VH S30L (antibody, name in Kabat numbering, V domains shown)
VH: B1 VH with S30L, L31N
VL: B1 VL
B18: H183/L072 VH S30K (antibody, name in Kabat numbering, V domains shown)
VH: B1 VH with S30K, L31N
VL: B1 VL
B19: H183/L072 VH S30F (antibody, name in Kabat numbering, V domains shown)
VH: B1 VH with S30F, L31N
VL: B1 VL
B20: H183/L072 VH Q50M (antibody, name in Kabat numbering, V domains shown)
VH: B1 VH with L31N, Q50M
VL: B1 VL
B21: H183/L072 VH S30P (antibody, name in Kabat numbering, V domains shown)
VH: B1 VH with S30P, L31N
VL: B1 VL
B22: H183/L072 VH S30G (antibody, name in Kabat numbering, V domains shown)
VH: B1 VH with S30G, L31N
VL: B1 VL
B23: H183/L072 VH S30A (antibody, name in Kabat numbering, V domains shown)
VH: B1 VH with S30A, L31N
VL: B1 VL
B24: H183/L072 VH N31T (antibody, name in Kabat numbering, V domains shown)
VH: B1 VH with L31T
VL: B1 VL
B25: H183/L072 VH P61I (antibody, name in Kabat numbering, V domains shown)
VH: B1 VH with L31N, P64I
VL: B1 VL
B26: H183/L072 VH Q50T (antibody, name in Kabat numbering, V domains shown)
VH: B1 VH with L31N, Q50T
VL: B1 VL
B27: H183/L072 VH Q50Y (antibody, name in Kabat numbering, V domains shown)
VH: B1 VH with L31N, Q50Y
VL: B1 VL
B28: H183/L072 VH Q50W (antibody, name in Kabat numbering, V domains shown)
VH: B1 VH with L31N, Q50W
VL: B1 VL
B29: H183/L072 VH S30H (antibody, name in Kabat numbering, V domains shown)
VH: B1 VH with S30H, L31N
VL: B1 VL
B30: H183/L072 VH Q50D (antibody, name in Kabat numbering, V domains shown)
VH: B1 VH with L31N, Q50D
VL: B1 VL
B31: H183/L072 VH P100eM (antibody, name in Kabat numbering, V domains shown)
VH: B1 VH with L31N, P111M
VL: B1 VL
B32: H183/L072 VH Q50K (antibody, name in Kabat numbering, V domains shown)
VH: B1 VH with L31N, Q50K
VL: B1 VL
B33: H183/L072 VH N31Q (antibody, name in Kabat numbering, V domains shown)
VH: B1 VH with L31Q
VL: B1 VL
B34: H183/L072 VH P100eL (antibody, name in Kabat numbering, V domains shown)
VH: B1 VH with L31N, P111L
VL: B1 VL
B35: H183/L072 VH N31W (antibody, name in Kabat numbering, V domains shown)
VH: B1 VH with L31W
VL: B1 VL
B36: H183/L072 VH N53Y (antibody, name in Kabat numbering, V domains shown)
VH: B1 VH with L31N, N56Y
VL: B1 VL
B37: H183/L072 VH S30I (antibody, name in Kabat numbering, V domains shown)
VH: B1 VH with S30I, L31N
VL: B1 VL
B38: H183/L072 VH S30R (antibody, name in Kabat numbering, V domains shown)
VH: B1 VH with S30R, L31N
VL: B1 VL
B39: H183/L072 VH Q50N (antibody, name in Kabat numbering, V domains shown)
VH: B1 VH with L31N, Q50N
VL: B1 VL
B40: H183/L072 VH Q50V (antibody, name in Kabat numbering, V domains shown)
VH: B1 VH with L31N, Q50V
VL: B1 VL
B41: H183/L072 VH N31S (antibody, name in Kabat numbering, V domains shown)
VH: B1 VH with L31S
VL: B1 VL
B42: H183/L072 VH P100eI (antibody, name in Kabat numbering, V domains shown)
VH: B1 VH with L31N, P111I
VL: B1 VL
B43: H183/L072 VH S30D (antibody, name in Kabat numbering, V domains shown)
VH: B1 VH with S30D, L31N
VL: B1 VL
B44: H183/L072 VH Q50F (antibody, name in Kabat numbering, V domains shown)
VH: B1 VH with L31N, Q50F
VL: B1 VL
B45: H183/L072 VH S30W (antibody, name in Kabat numbering, V domains shown)
VH: B1 VH with S30W, L31N
VL: B1 VL
B46: H183/L072 VH Q50L (antibody, name in Kabat numbering, V domains shown)
VH: B1 VH with L31N, Q50L
VL: B1 VL
B47: H183/L072 VH S30M (antibody, name in Kabat numbering, V domains shown)
VH: B1 VH with S30M, L31N
VL: B1 VL

Target: T1, Human CD137 ECD (human)
T1 construct: also called 4-1BB
T1 sequence (chain, as listed by the source limits assumed): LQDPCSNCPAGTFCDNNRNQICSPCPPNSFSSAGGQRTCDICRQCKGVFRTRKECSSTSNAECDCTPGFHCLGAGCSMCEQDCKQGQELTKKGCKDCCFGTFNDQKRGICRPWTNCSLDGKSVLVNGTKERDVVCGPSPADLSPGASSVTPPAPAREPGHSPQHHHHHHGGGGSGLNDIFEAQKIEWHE
Experiment: single mutant vs template dBBDu183H

fold change of affinity	Binder
0.3 fold	B1
0.5 fold	B2
0.9 fold	B3
0.4 fold	B4
0 fold	B5
0.6 fold	B6
0.6 fold	B7
0.8 fold	B8
0.2 fold	B9
0.5 fold	B10
0.6 fold	B11
0.8 fold	B12
0.8 fold	B13
0.6 fold	B14
0.7 fold	B15
0.6 fold	B16
0.5 fold	B17
0.7 fold	B18
0.7 fold	B19
1.5 fold	B20
0.9 fold	B21
0.9 fold	B22
1.2 fold	B23
0.5 fold	B24

fold change of affinity	Binder
0.5 fold	B25
2 fold	B26
3.1 fold	B27
1.7 fold	B28
0.6 fold	B29
0.3 fold	B30
0 fold	B31
0.8 fold	B32
0.2 fold	B33
0 fold	B34
0.3 fold	B35
0 fold	B36
0.6 fold	B37
0.7 fold	B38
0.5 fold	B39
0.3 fold	B40
0.3 fold	B41
0 fold	B42
0.4 fold	B43
2.6 fold	B44
0.5 fold	B45
0.8 fold	B46
0.8 fold	B47
